{"source": "patent US20140329752A1", "about": "(published 2014)", "binders": {"B1": {"name": "AC187 (peptide)", "peptide": "VLGKLSQELHKLQTYPRTNTGSNTY", "modifications": "not fully specified"}, "B2": {"name": "modified calcitonin gene-related peptide antagonist of SEQ ID NO: 14 (peptide)", "peptide": "ACVLGACVLGRLSQELHRLQTYPVDPSSPHSY-NH2", "modifications": "not fully specified (bridges); printed as Ala-Cys-Val-Leu-Gly-Ala-Cys-Val-Leu-Gly-Arg-Leu-Ser-Gln-Glu-Leu-His-Arg-Leu-Gln-Thr-Tyr-Pro-Val-Asp-Pro-Ser-Ser-Pro-His-Ser-Tyr-NH2; cysteine pairing not given here"}, "B3": {"name": "modified calcitonin gene-related peptide antagonist of SEQ ID NO: 13 (peptide)", "peptide": "H-ACNLSACVLGRLSQELHRLQTYPTNTGSGTP-NH2", "modifications": "not fully specified (bridges); printed as NH2-Ala-Cys-Asn-Leu-Ser-Ala-Cys-Val-Leu-Gly-Arg-Leu-Ser-Gln-Glu-Leu-His-Arg-Leu-Gln-Thr-Tyr-Pro-Thr-Asn-Thr-Gly-Ser-Gly-Thr-Pro-NH2; cysteine pairing not given here"}, "B4": {"name": "modified calcitonin gene-related peptide antagonist of SEQ ID NO: 8 (peptide)", "peptide": "H-CSNTAACVLGRLSQELHRLQTYPRTNVGSKAF-NH2", "modifications": "not fully specified (bridges); printed as NH2-Cys-Ser-Asn-Thr-Ala-Ala-Cys-Val-Leu-Gly-Arg-Leu-Ser-Gln-Glu-Leu-His-Arg-Leu-Gln-Thr-Tyr-Pro-Arg-Thr-Asn-Val-Gly-Ser-Lys-Ala-Phe-NH2; cysteine pairing not given here"}, "B5": {"name": "modified calcitonin gene-related peptide antagonist of SEQ ID NO: 6 (peptide)", "peptide": "H-ACRFGACVLGRLSQELHRLQTYPRTNVGSKAF-NH2", "modifications": "not fully specified (bridges); printed as NH2-Ala-Cys-Arg-Phe-Gly-Ala-Cys-Val-Leu-Gly-Arg-Leu-Ser-Gln-Glu-Leu-His-Arg-Leu-Gln-Thr-Tyr-Pro-Arg-Thr-Asn-Val-Gly-Ser-Lys-Ala-Phe-NH2; cysteine pairing not given here"}, "B6": {"name": "modified calcitonin gene-related peptide antagonist of SEQ ID NO: 5 (peptide)", "peptide": "H-ACVLGACVLGRLSQELHRLQTYPRTNVGSKAF-NH2", "modifications": "not fully specified (bridges); printed as NH2-Ala-Cys-Val-Leu-Gly-Ala-Cys-Val-Leu-Gly-Arg-Leu-Ser-Gln-Glu-Leu-His-Arg-Leu-Gln-Thr-Tyr-Pro-Arg-Thr-Asn-Val-Gly-Ser-Lys-Ala-Phe-NH2; cysteine pairing not given here"}, "B7": {"name": "modified calcitonin gene-related peptide antagonist of SEQ ID NO: 10 (peptide)", "peptide": "H-ACDTAICVLGRLSQELHRLQTYPRTNVGSKAF-NH2", "modifications": "not fully specified (bridges); printed as NH2-Ala-Cys-Asp-Thr-Ala-Ile-Cys-Val-Leu-Gly-Arg-Leu-Ser-Gln-Glu-Leu-His-Arg-Leu-Gln-Thr-Tyr-Pro-Arg-Thr-Asn-Val-Gly-Ser-Lys-Ala-Phe-NH2; cysteine pairing not given here"}, "B8": {"name": "modified calcitonin gene-related peptide antagonist of SEQ ID NO: 1 (peptide)", "peptide": "H-ACDTAACVLGRLSQELHRLQTYPRTNVGSKAF-NH2", "modifications": "not fully specified (bridges); printed as NH2-Ala-Cys-Asp-Thr-Ala-Ala-Cys-Val-Leu-Gly-Arg-Leu-Ser-Gln-Glu-Leu-His-Arg-Leu-Gln-Thr-Tyr-Pro-Arg-Thr-Asn-Val-Gly-Ser-Lys-Ala-Phe-NH2; cysteine pairing not given here"}, "B9": {"name": "modified calcitonin gene-related peptide antagonist of SEQ ID NO: 7 (peptide)", "peptide": "H-ACNLSACVLGRLSQELHRLQTYPRTNVGSKAF-NH2", "modifications": "not fully specified (bridges); printed as NH2-Ala-Cys-Asn-Leu-Ser-Ala-Cys-Val-Leu-Gly-Arg-Leu-Ser-Gln-Glu-Leu-His-Arg-Leu-Gln-Thr-Tyr-Pro-Arg-Thr-Asn-Val-Gly-Ser-Lys-Ala-Phe-NH2; cysteine pairing not given here"}, "B10": {"name": "modified calcitonin gene-related peptide antagonist of SEQ ID NO: 12 (peptide)", "peptide": "H-CSNTAVCVLGRLSQELHRLQTYPRTNVGSKAF-NH2", "modifications": "not fully specified (bridges); printed as NH2-Cys-Ser-Asn-Thr-Ala-Val-Cys-Val-Leu-Gly-Arg-Leu-Ser-Gln-Glu-Leu-His-Arg-Leu-Gln-Thr-Tyr-Pro-Arg-Thr-Asn-Val-Gly-Ser-Lys-Ala-Phe-NH2; cysteine pairing not given here"}, "B11": {"name": "modified calcitonin gene-related peptide antagonist of SEQ ID NO: 3 (peptide)", "peptide": "H-ACDTAVCVLGRLSQELHRLQTYPRTNVGSKAF-NH2", "modifications": "not fully specified (bridges); printed as NH2-Ala-Cys-Asp-Thr-Ala-Val-Cys-Val-Leu-Gly-Arg-Leu-Ser-Gln-Glu-Leu-His-Arg-Leu-Gln-Thr-Tyr-Pro-Arg-Thr-Asn-Val-Gly-Ser-Lys-Ala-Phe-NH2; cysteine pairing not given here"}, "B12": {"name": "modified calcitonin gene-related peptide antagonist of SEQ ID NO: 4 (peptide)", "peptide": "H-ACNTAACVLGRLSQELHRLQTYPRTNVGSKAF-NH2", "modifications": "not fully specified (bridges); printed as NH2-Ala-Cys-Asn-Thr-Ala-Ala-Cys-Val-Leu-Gly-Arg-Leu-Ser-Gln-Glu-Leu-His-Arg-Leu-Gln-Thr-Tyr-Pro-Arg-Thr-Asn-Val-Gly-Ser-Lys-Ala-Phe-NH2; cysteine pairing not given here"}, "B13": {"name": "modified calcitonin gene-related peptide antagonist of SEQ ID NO: 15 (peptide)", "peptide": "ACDTAACVTHRLAGLLSRSGGVVKNNFVPTNVGSKAF-NH2", "modifications": "not fully specified (bridges); printed as Ala-Cys-Asp-Thr-Ala-Ala-Cys-Val-Thr-His-Arg-Leu-Ala-Gly-Leu-Leu-Ser-Arg-Ser-Gly-Gly-Val-Val-Lys-Asn-Asn-Phe-Val-Pro-Thr-Asn-Val-Gly-Ser-Lys-Ala-Phe-NH2; cysteine pairing not given here"}, "B14": {"name": "modified calcitonin gene-related peptide antagonist of SEQ ID NO: 2 (peptide)", "peptide": "H-ACDTASCVLGRLSQELHRLQTYPRTNVGSKAF-NH2", "modifications": "not fully specified (bridges); printed as NH2-Ala-Cys-Asp-Thr-Ala-Ser-Cys-Val-Leu-Gly-Arg-Leu-Ser-Gln-Glu-Leu-His-Arg-Leu-Gln-Thr-Tyr-Pro-Arg-Thr-Asn-Val-Gly-Ser-Lys-Ala-Phe-NH2; cysteine pairing not given here"}, "B15": {"name": "modified calcitonin gene-related peptide antagonist of SEQ ID NO: 9 (peptide)", "peptide": "H-ACDTALCVLGRLSQELHRLQTYPRTNVGSKAF-NH2", "modifications": "not fully specified (bridges); printed as NH2-Ala-Cys-Asp-Thr-Ala-Leu-Cys-Val-Leu-Gly-Arg-Leu-Ser-Gln-Glu-Leu-His-Arg-Leu-Gln-Thr-Tyr-Pro-Arg-Thr-Asn-Val-Gly-Ser-Lys-Ala-Phe-NH2; cysteine pairing not given here"}, "B16": {"name": "modified calcitonin gene-related peptide antagonist of SEQ ID NO: 11 (peptide)", "peptide": "H-ACNLSVCVLGRLSQELHRLQTYPRTNVGSKAF-NH2", "modifications": "not fully specified (bridges); printed as NH2-Ala-Cys-Asn-Leu-Ser-Val-Cys-Val-Leu-Gly-Arg-Leu-Ser-Gln-Glu-Leu-His-Arg-Leu-Gln-Thr-Tyr-Pro-Arg-Thr-Asn-Val-Gly-Ser-Lys-Ala-Phe-NH2; cysteine pairing not given here"}}, "key": {"[1]": {"target": "T1, amylin receptor AMY1, a CT (calcitonin) receptor/RAMP1 (receptor-activity modifying protein) complex (UniProt P30988 25-474; O60894 27-148, limits assumed)", "T1 sequence (P30988 25-474 limits assumed, chain 1 of 2)": "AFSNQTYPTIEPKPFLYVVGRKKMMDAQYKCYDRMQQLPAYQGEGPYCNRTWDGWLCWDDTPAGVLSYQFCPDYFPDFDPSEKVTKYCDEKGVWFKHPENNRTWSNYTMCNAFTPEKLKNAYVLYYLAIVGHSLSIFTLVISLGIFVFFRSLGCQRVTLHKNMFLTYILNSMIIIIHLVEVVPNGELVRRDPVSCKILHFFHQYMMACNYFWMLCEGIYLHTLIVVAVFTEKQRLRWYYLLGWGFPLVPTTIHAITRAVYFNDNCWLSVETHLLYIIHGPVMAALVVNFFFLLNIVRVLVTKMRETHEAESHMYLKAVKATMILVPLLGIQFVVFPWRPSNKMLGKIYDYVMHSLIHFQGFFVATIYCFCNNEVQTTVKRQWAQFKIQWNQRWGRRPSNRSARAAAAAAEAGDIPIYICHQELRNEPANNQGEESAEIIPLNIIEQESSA", "T1 sequence (O60894 27-148 limits assumed, chain 2 of 2)": "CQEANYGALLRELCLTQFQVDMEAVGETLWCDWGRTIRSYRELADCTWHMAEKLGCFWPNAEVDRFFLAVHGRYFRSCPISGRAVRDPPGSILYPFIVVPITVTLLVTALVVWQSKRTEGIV", "experiment": "cell-based or functional assay"}, "[2]": {"target": "T1, amylin receptor AMY1, a CT (calcitonin) …", "experiment": "cell-based or functional assay", "remark": "listed apart in the source"}}, "note": "Ends that are not written are not given here.", "data": [{"binder": "B1", "values": [{"measurement": "IC50 nM (calcium flux, assay positive control)", "setting": "[1]", "result": 8150, "unit": "nM"}]}, {"binder": "B2", "values": [{"measurement": "IC50 nM (calcium flux, inhibition of stimulation by 32 nM α-CGRP)", "setting": "[2]", "result": 1020, "unit": "nM"}]}, {"binder": "B3", "values": [{"measurement": "IC50 nM (calcium flux, inhibition of stimulation by 32 nM α-CGRP)", "setting": "[2]", "result": 4, "unit": "nM"}]}, {"binder": "B4", "values": [{"measurement": "IC50 nM (calcium flux, inhibition of stimulation by 32 nM α-CGRP)", "setting": "[2]", "result": 16, "unit": "nM"}]}, {"binder": "B5", "values": [{"measurement": "IC50 nM (calcium flux, inhibition of stimulation by 32 nM α-CGRP)", "setting": "[2]", "result": 33, "unit": "nM"}]}, {"binder": "B6", "values": [{"measurement": "IC50 nM (calcium flux, inhibition of stimulation by 32 nM α-CGRP)", "setting": "[2]", "result": 75, "unit": "nM"}]}, {"binder": "B7", "values": [{"measurement": "IC50 nM (calcium flux, inhibition of stimulation by 32 nM α-CGRP)", "setting": "[2]", "result": 9, "unit": "nM"}]}, {"binder": "B8", "values": [{"measurement": "IC50 nM (calcium flux, inhibition of stimulation by 32 nM α-CGRP)", "setting": "[2]", "result": 17, "unit": "nM"}]}, {"binder": "B9", "values": [{"measurement": "IC50 nM (calcium flux, inhibition of stimulation by 32 nM α-CGRP)", "setting": "[2]", "result": 8, "unit": "nM"}]}, {"binder": "B10", "values": [{"measurement": "IC50 nM (calcium flux, inhibition of stimulation by 32 nM α-CGRP)", "setting": "[2]", "result": 9, "unit": "nM"}]}, {"binder": "B11", "values": [{"measurement": "IC50 nM (calcium flux, inhibition of stimulation by 32 nM α-CGRP)", "setting": "[2]", "result": 4, "unit": "nM"}]}, {"binder": "B12", "values": [{"measurement": "IC50 nM (calcium flux, inhibition of stimulation by 32 nM α-CGRP)", "setting": "[2]", "result": 12, "unit": "nM"}]}, {"binder": "B13", "values": [{"measurement": "IC50 nM (calcium flux, inhibition of stimulation by 32 nM α-CGRP)", "setting": "[2]", "result": 1240, "unit": "nM"}]}, {"binder": "B14", "values": [{"measurement": "IC50 nM (calcium flux, inhibition of stimulation by 32 nM α-CGRP)", "setting": "[2]", "result": 5, "unit": "nM"}]}, {"binder": "B15", "values": [{"measurement": "IC50 nM (calcium flux, inhibition of stimulation by 32 nM α-CGRP)", "setting": "[2]", "result": 9, "unit": "nM"}]}, {"binder": "B16", "values": [{"measurement": "IC50 nM (calcium flux, inhibition of stimulation by 32 nM α-CGRP)", "setting": "[2]", "result": 9, "unit": "nM"}]}]}
